{
  "source": "patent US20250043302A1",
  "about": "“MUTATED HYDROXYPHENYLPYRUVATE DIOXYGENASE POLYPEPTIDE, AND CODING GENE AND USE THEREOF” (BEIJING DABEINONG BIOTECHNOLOGY CO., LTD., priority 2021, published 2025)",
  "molecules": {"B1": {"name": "SbHPPDm-F372A-F383W-02: nucleotide sequence encoding Sorghum bicolor HPPD with F372A+F383W; vector DBN11761 (nucleic acid)", "DNA": "ATGCCGCCCACTCCAACAACTGCTGCTGCGACGGGAGCAGCTGTCGCCGCTGCTTCTGCTGAGCAGGCTGCCTTCAGGCTCGTCGGGCACAGAAATTTTGTTCGTGTAAATCCAAGGAGTGATAGGTTCCACACCTTGGCTTTTCACCACGTGGAGTTGTGGTGTGCTGATGCAGCCTCGGCAGCGGGGCGCTTCTCGTTTGGTCTCGGTGCTCCGCTCGCCGCAAGATCTGATCTTAGCACTGGAAACACAGCGCATGCCTCCCTGCTCCTGCGCTCTGGCGCGCTGGCGTTCCTCTTCACGGCGCCATATGCTCACGGCGCCGACGCCGCCACCGCGTCATTGCCGTCTTTTAGTGCAGCCGAAGCAAGAAGATTTGCAGCAGACCACGGCCTCGCCGTAAGGGCCGTGGCCTTACGTGTCGCCGATGCCGAAGATGCTTTCCGCGCCTCTGTAGCAGCTGGAGCAAGGCCAGCATTTGAACCTGTTGAATTGGGGTTAGGATTCCGTCTTGCAGAAGTTGAGCTTTATGGCGACGTTGTTTTGAGATACGTTTCATATCCTGATGACGCTGACGCTAGCTTCTTGCCTGGTTTTGTGGGGGTGACATCACCTGGGGCAGCAGATTATGGTCTCAGGCGGTTTGATCATATTGTTGGAAACGTTCCTGAACTCGCGCCGGCGGCAGCCTACTTCGCCGGTTTCACTGGGTTTCATGAATTTGCTGAATTCACAGCCGAGGATGTCGGCACCACCGAGAGTGGACTGAACTCCATGGTGCTGGCCAACAATGCAGAGAATGTCCTTCTTCCCTTGAATGAACCAGTTCATGGAACAAAAAGGCGTTCCCAAATACAAACATACCTCGACCATCATGGTGGACCAGGCGTTCAGCATATGGCTCTCGCTAGTGACGATGTTCTACGAACCCTGCGAGAGATGCAGGCGCGGTCTGCAATGGGAGGATTTGAGTTCATGGCACCTCCTGCCCCTGAATATTATGATGGTGTTCGGAGAAGGGCAGGTGATGTGCTAACTGAAGCTCAAATCAAGGAGTGCCAGGAGCTTGGCGTGCTGGTCGATCGGGATGATCAAGGTGTGCTTCTGCAGATTGCCACTAAACCAGTGGGTGACCGCCCCACGCTGTGGCTAGAGATCATCCAGAGAATAGGGTGCATGGAGAAGGACGAAAAAGGACAAGAGTACCAGAAGGGAGGTTGTGGCGGCTTTGGAAAAGGGAACTTCTCCCAATTATTCAAGTCAATTGAAGACTATGAAAAGAGTTTGGAGGCTAAGCAAGCTGCAGCCGCCCAGGGCAGCTGA", "modifications": "SbHPPDm-F372A-F383W-02 Nucleotide Sequence", "notes": "vector DBN11761"}},
  "assay_type_in_all_cases": "in vivo",
  "key": {"[1]": {"tested_on": "Arabidopsis thaliana T1 plants", "assay": "Topramezone tolerance of transgenic Arabidopsis thaliana T1 plants (spray, bleached leaf area grade, damage score)", "settings": "7 DAT, Table 4; for Classification and statistics of the grade of pesticide damage: Grade 0 / Classification and statistics of the grade of pesticide damage: Grade 1 / Classification and statistics of the grade of pesticide damage: Grade 2 / Classification and statistics of the grade of pesticide damage: Grade 3: number of plants; for Scores: pesticide damage score 0-100", "in_short": "(§1)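 T1 transformants selected by glufosinate; 18-day-old plants, with empty-vector and wild-type controls, sprayed with topramezone (25–200 g ai/ha), isoxaflutole (35–280 g ai/ha) or mesotrione (52.5–420 g ai/ha), water as 0×. Bleached leaf area fraction scored at 7 DAT as grades 0–3.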"}, "soybean T1 plants [2]": {"tested_on": "soybean T1 plants", "assay": "Mesotrione tolerance of transgenic soybean T1 plants", "settings": "different concentrations"}, "soybean T1 plants [3]": {"tested_on": "soybean T1 plants", "assay": "Isoxaflutole tolerance of transgenic soybean T1 plants", "settings": "different concentrations"}, "[4]": {"tested_on": "Arabidopsis thaliana T1 plants", "assay": "Mesotrione tolerance of transgenic Arabidopsis thaliana T1 plants (spray, bleached leaf area grade, damage score)", "parameters": "Scores: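 damage score 0-100 computed as Σ(N×S)/(T×M)×100 over grades 0-3 with higher meaning more damage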", "settings": "Arabidopsis thaliana T1 plants; for Grade 0 (classification and statistics of the grade of pesticide damage; number of plants) / Grade 1 (classification and statistics of the grade of pesticide damage; number of plants) / Grade 2 (classification and statistics of the grade of pesticide damage; number of plants) / Grade 3 (classification and statistics of the grade of pesticide damage; number of plants): 16 plants", "in_short": "as §1"}, "soybean T1 plants [5]": {"tested_on": "soybean T1 plants", "assay": "Topramezone tolerance of transgenic soybean T1 plants", "settings": "different concentrations", "procedure": "T1 transformants were initially selected from the untransformed seeds using a glufosinate selection scheme. […] The degree of damage caused by the herbicide was measured for each plant according to the proportion of bleached leaf area (the proportion of bleached leaf area=bleached leaf area/total leaf area×100%) 7 days after spraying (7 DAT): the case where there is basically no bleached phenotype is defined as grade 0, the case where the proportion of bleached leaf area is less than 50% is defined as grade 1, the case where the proportion of bleached leaf area is more than 50% is defined as grade 2, and the case where the proportion of bleached leaf area is 100% grade is defined as grade 3.\nThe soybean T1 plants into which the SbHPPD-02 nucleotide sequence was introduced, soybean T1 plants into which the SbHPPDm-F372A-02 nucleotide sequence was introduced, soybean T1 plants into which the SbHPPDm-F383W-02 nucleotide sequence was introduced, soybean T1 plants into which the SbHPPDm-F372A-F383W-02 nucleotide sequence was introduced, soybean T1 plants into which the control vector DBN11726N nucleotide sequence was introduced, and wild-type soybean plants (V3-V4 at seedling stage) were sprayed with topramezone at three different concentrations (i.e., 25 g ai/ha (one-fold field concentration, 1×). […] According to the method in point 6 of Example 1, after 7 days of spraying (7 DAT), the damage degree of each plant by the herbicide was statistically analyzed, and the scoring and resistance evaluation were carried out accordingly. […]"}, "[6]": {"tested_on": "Arabidopsis thaliana T1 plants", "assay": "Isoxaflutole tolerance of transgenic Arabidopsis thaliana T1 plants (spray, bleached leaf area grade, damage score)", "parameters": "Scores (pesticide damage): scale not given here", "settings": "spray, Arabidopsis thaliana T1 plants; for Classification and statistics of the grade of pesticide damage: Grade 0 (number of plants) / Classification and statistics of the grade of pesticide damage: Grade 1 (number of plants) / Classification and statistics of the grade of pesticide damage: Grade 2 (number of plants) / Classification and statistics of the grade of pesticide damage: Grade 3 (number of plants): 16 plants", "in_short": "as §1"}, "[7]": {"settings": "isoxaflutole 35 g ai/ha (0.5x field concentration)"}, "[8]": {"settings": "isoxaflutole 70 g ai/ha (1x field concentration)"}},
  "data": [
    {"molecule": "B1", "values": [
      {"measurement": "Classification and statistics of the grade of pesticide damage: Grade 0", "setting": "[1]; topramezone 25 g ai/ha (1×)", "value": 16},
      {"measurement": "Classification and statistics of the grade of pesticide damage: Grade 1", "setting": "[1]; topramezone 25 g ai/ha (1×)", "value": 0},
      {"measurement": "Classification and statistics of the grade of pesticide damage: Grade 2", "setting": "[1]; topramezone 25 g ai/ha (1×)", "value": 0},
      {"measurement": "Classification and statistics of the grade of pesticide damage: Grade 3", "setting": "[1]; topramezone 25 g ai/ha (1×)", "value": 0},
      {"measurement": "Classification and statistics of the grade of pesticide damage: Grade 0", "setting": "[1]; topramezone 100 g ai/ha (4×)", "value": 9},
      {"measurement": "Classification and statistics of the grade of pesticide damage: Grade 1", "setting": "[1]; topramezone 100 g ai/ha (4×)", "value": 7},
      {"measurement": "Classification and statistics of the grade of pesticide damage: Grade 2", "setting": "[1]; topramezone 100 g ai/ha (4×)", "value": 0},
      {"measurement": "Classification and statistics of the grade of pesticide damage: Grade 3", "setting": "[1]; topramezone 100 g ai/ha (4×)", "value": 0},
      {"measurement": "Scores", "setting": "[1]; topramezone 25 g ai/ha (1×)", "value": 0},
      {"measurement": "Scores", "setting": "[1]; topramezone 100 g ai/ha (4×)", "value": 15},
      {"measurement": "Resistance evaluation", "setting": "[1]; topramezone 25 g ai/ha (1×)", "value": "highly"},
      {"measurement": "Resistance evaluation", "setting": "[1]; topramezone 100 g ai/ha (4×)", "value": "highly"},
      {"measurement": "tolerance to HPPD-inhibitor herbicides (in words): mesotrione", "setting": "soybean T1 plants [2]", "value": "different degrees of tolerance"},
      {"measurement": "tolerance to HPPD-inhibitor herbicides (in words): isoxaflutole", "setting": "soybean T1 plants [3]", "value": "different degrees of tolerance"},
      {"measurement": "Resistance evaluation", "setting": "[4]; mesotrione 52.5 g ai/ha", "value": "Highly resistant"},
      {"measurement": "Scores", "setting": "[4]; mesotrione 52.5 g ai/ha", "value": 13},
      {"measurement": "Grade 0 (classification and statistics of the grade of pesticide damage; number of plants)", "setting": "[4]; mesotrione 52.5 g ai/ha", "value": 10},
      {"measurement": "Grade 1 (classification and statistics of the grade of pesticide damage; number of plants)", "setting": "[4]; mesotrione 52.5 g ai/ha", "value": 6},
      {"measurement": "Grade 2 (classification and statistics of the grade of pesticide damage; number of plants)", "setting": "[4]; mesotrione 52.5 g ai/ha", "value": 0},
      {"measurement": "Grade 3 (classification and statistics of the grade of pesticide damage; number of plants)", "setting": "[4]; mesotrione 52.5 g ai/ha", "value": 0},
      {"measurement": "Resistance evaluation", "setting": "[4]; mesotrione 105 g ai/ha", "value": "Poorly resistant"},
      {"measurement": "Scores", "setting": "[4]; mesotrione 105 g ai/ha", "value": 38},
      {"measurement": "Grade 0 (classification and statistics of the grade of pesticide damage; number of plants)", "setting": "[4]; mesotrione 105 g ai/ha", "value": 0},
      {"measurement": "Grade 1 (classification and statistics of the grade of pesticide damage; number of plants)", "setting": "[4]; mesotrione 105 g ai/ha", "value": 14},
      {"measurement": "Grade 2 (classification and statistics of the grade of pesticide damage; number of plants)", "setting": "[4]; mesotrione 105 g ai/ha", "value": 2},
      {"measurement": "Grade 3 (classification and statistics of the grade of pesticide damage; number of plants)", "setting": "[4]; mesotrione 105 g ai/ha", "value": 0},
      {"measurement": "tolerance to HPPD-inhibitor herbicides (in words): topramezone", "setting": "soybean T1 plants [5]", "value": "different degrees of tolerance"},
      {"measurement": "Resistance evaluation", "setting": "[6]; [7]", "value": "Highly"},
      {"measurement": "Scores (pesticide damage)", "setting": "[6]; [7]", "value": 8},
      {"measurement": "Classification and statistics of the grade of pesticide damage: Grade 0 (number of plants)", "setting": "[6]; [7]", "value": 12},
      {"measurement": "Classification and statistics of the grade of pesticide damage: Grade 1 (number of plants)", "setting": "[6]; [7]", "value": 4},
      {"measurement": "Classification and statistics of the grade of pesticide damage: Grade 2 (number of plants)", "setting": "[6]; [7]", "value": 0},
      {"measurement": "Classification and statistics of the grade of pesticide damage: Grade 3 (number of plants)", "setting": "[6]; [7]", "value": 0},
      {"measurement": "Resistance evaluation", "setting": "[6]; [8]", "value": "Highly"},
      {"measurement": "Scores (pesticide damage)", "setting": "[6]; [8]", "value": 13},
      {"measurement": "Classification and statistics of the grade of pesticide damage: Grade 0 (number of plants)", "setting": "[6]; [8]", "value": 10},
      {"measurement": "Classification and statistics of the grade of pesticide damage: Grade 1 (number of plants)", "setting": "[6]; [8]", "value": 6},
      {"measurement": "Classification and statistics of the grade of pesticide damage: Grade 2 (number of plants)", "setting": "[6]; [8]", "value": 0},
      {"measurement": "Classification and statistics of the grade of pesticide damage: Grade 3 (number of plants)", "setting": "[6]; [8]", "value": 0}
    ]}
  ]
}
